Test [1] addresses T1, human FcRn/b2M (human, UniProt P61769 21-119, biotinylated).
T1 construct: bought recombinant biotinylated protein (ACRO FCM-H82W4 or Immunitrack ITF01); also called hFcRn; hFcRn/hb2M
Kind of test: SPR pH 6.0.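 Also: surface plasmon resonance kinetics at 25 °C, diluted periplasmic extracts injected over immobilized ligand surfaces, 120 s association then 600–3600 s dissociation, running buffer containing 150 mM NaCl.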
Description: (§1) All kinetic measurements have been performed on ProteOn XPR36 (BioRad Laboratories, Inc.), MASS-2 (Sierra sensors, Gmbh) or SPR-32 (Bruker Corporation). […] The phytip purified periplasmic extracts were diluted 1:10 in running buffer (CPA+150 mM NaCl+0.005% Tw20 at pH 5.5, pH 6.0 or pH 7.4) and injected over the ligand surfaces (association: 120 s at 45 μL/min; dissociation: 600s-3600 s at 45 μL/min). Experiments were carried out at 25° C.

Test [2] concerns the target T2, cyno FcRn/b2M (cyno, UniProt Q8SPV9 24-297; Q8SPW0 21-119, biotinylated).
T2 construct: bought recombinant biotinylated protein (Immunitrack ITF05 or ACRO FCM-C82W5); also called cFcRn; cFcRn/cb2M
Description: SPR pH 6.0.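 Also: surface plasmon resonance kinetics at 25 °C, diluted periplasmic extracts injected over immobilized ligand surfaces, 120 s association then 600–3600 s dissociation, running buffer containing 150 mM NaCl.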
Description: as §1

Test [3] addresses T1, human FcRn/b2M. Kind of test: SPR pH 7.4.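 Also: surface plasmon resonance kinetics, periplasmic extracts diluted 1:10 flowed over immobilized target at 25 °C, 120 s association then 600–3600 s dissociation, buffer with 150 mM NaCl.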
Description: as §1
Test [4] concerns the target T2, cyno FcRn/b2M. Kind of test: SPR pH 7.4.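 Also: surface plasmon resonance kinetics, periplasmic extracts diluted 1:10 flowed over immobilized target at 25 °C, 120 s association then 600–3600 s dissociation, buffer with 150 mM NaCl.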
Description: as §1
Test [5] concerns the target T1, human FcRn/b2M. Kind of test: SPR off-rate; pH 7.4 vs pH 6.0.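 Also: surface plasmon resonance with diluted periplasmic extracts flowed over ligand surfaces, 120 s association and 600–3600 s dissociation at 25 °C, running buffer containing 150 mM NaCl.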
Description: as §1
For test [6], the target named is T2, cyno FcRn/b2M. Kind of test: SPR off-rate; pH 7.4 vs pH 6.0.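 Also: surface plasmon resonance with diluted periplasmic extracts flowed over ligand surfaces, 120 s association and 600–3600 s dissociation at 25 °C, running buffer containing 150 mM NaCl.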
Description: as §1

T1 sequence (chain, as listed by the source limits assumed, chain 1 of 2): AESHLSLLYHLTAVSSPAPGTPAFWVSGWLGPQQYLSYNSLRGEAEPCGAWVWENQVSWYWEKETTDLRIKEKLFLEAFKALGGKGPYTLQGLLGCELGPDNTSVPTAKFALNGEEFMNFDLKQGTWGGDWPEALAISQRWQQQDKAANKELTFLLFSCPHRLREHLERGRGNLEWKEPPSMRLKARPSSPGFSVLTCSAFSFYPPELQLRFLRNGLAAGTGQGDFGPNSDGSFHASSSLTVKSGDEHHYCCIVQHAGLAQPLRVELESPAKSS
T1 sequence (P61769 21-119 limits assumed, chain 2 of 2): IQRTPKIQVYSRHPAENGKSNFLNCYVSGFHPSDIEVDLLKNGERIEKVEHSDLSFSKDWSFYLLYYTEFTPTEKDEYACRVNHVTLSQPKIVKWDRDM
T2 sequence (Q8SPV9 24-297 limits assumed, chain 1 of 2): as the sequence (chain, as listed by the source limits assumed, chain 1 of 2) above, with N39D, E44Q, G99S, S189G, S190N, L217M, S269T counted along it
T2 sequence (Q8SPW0 21-119 limits assumed, chain 2 of 2): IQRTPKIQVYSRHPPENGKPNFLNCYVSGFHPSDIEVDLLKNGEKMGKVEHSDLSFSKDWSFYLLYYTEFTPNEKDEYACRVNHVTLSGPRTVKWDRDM

B1: T0263018B11 S30D (VHH, name in Kabat numbering)
VHH: EVQLVESGGGVVQPGGSLRLSCAASGFTFDSYAMYWVRQAPGKGLEWVSAISSGGGSTDYADSVKGRFTISRDNSKNTLYLQMNSLRPEDTALYYCAADTLYTSLTWYSYWGQGTLVTVSS
notes: FLAG3-His6 tagged
As to B1, the koff in test [1] amounted to 0.0032 s⁻¹; in test [2] it was 0.0026 s⁻¹; in test [3] it was 0.13 s⁻¹; in test [4], 0.17 s⁻¹. In addition, the “kd ratio pH 7.4/6.0” value was determined as 41 in test [5] and 65 in test [6].

B2: T0263018B11 S31P (VHH, name in Kabat numbering)
VHH: EVQLVESGGGVVQPGGSLRLSCAASGFTFSPYAMYWVRQAPGKGLEWVSAISSGGGSTDYADSVKGRFTISRDNSKNTLYLQMNSLRPEDTALYYCAADTLYTSLTWYSYWGQGTLVTVSS
notes: FLAG3-His6 tagged
Turning to B2, the koff in test [1] was determined as 0.00088 s⁻¹; in test [2] it was 0.00073 s⁻¹; in test [3] it was 0.043 s⁻¹; in test [4], 0.043 s⁻¹. Further, the “kd ratio pH 7.4/6.0” value in test [5] came out at 49; in test [6], 59.

B3: T0263018B11 S30T (VHH, name in Kabat numbering)
VHH: EVQLVESGGGVVQPGGSLRLSCAASGFTFTSYAMYWVRQAPGKGLEWVSAISSGGGSTDYADSVKGRFTISRDNSKNTLYLQMNSLRPEDTALYYCAADTLYTSLTWYSYWGQGTLVTVSS
notes: FLAG3-His6 tagged
As for B3, the koff in test [1] came out at 0.0016 s⁻¹; in test [2], 0.0014 s⁻¹; in test [3], 0.059 s⁻¹; in test [4], 0.062 s⁻¹. For the same molecule, the figures for the “kd ratio pH 7.4/6.0” value in test [5] and in test [6] were 37 and 44, respectively.

B4: T0263018B11 S30K (VHH, name in Kabat numbering)
VHH: EVQLVESGGGVVQPGGSLRLSCAASGFTFKSYAMYWVRQAPGKGLEWVSAISSGGGSTDYADSVKGRFTISRDNSKNTLYLQMNSLRPEDTALYYCAADTLYTSLTWYSYWGQGTLVTVSS
notes: FLAG3-His6 tagged
As for B4, the koff in test [1] was determined as 0.0078 s⁻¹; in test [2], 0.003 s⁻¹; in test [3] it was 0.069 s⁻¹; in test [4], 0.055 s⁻¹. The entries for the “kd ratio pH 7.4/6.0” value in test [5] and in test [6] were 9 and 18, respectively.

B5: T0263018B11 S31N (VHH, name in Kabat numbering)
VHH: EVQLVESGGGVVQPGGSLRLSCAASGFTFSNYAMYWVRQAPGKGLEWVSAISSGGGSTDYADSVKGRFTISRDNSKNTLYLQMNSLRPEDTALYYCAADTLYTSLTWYSYWGQGTLVTVSS
notes: FLAG3-His6 tagged
With B5, the koff was 0.0034 s⁻¹ in test [1], 0.0018 s⁻¹ in test [2], 0.17 s⁻¹ in test [3] and 0.12 s⁻¹ in test [4]. Also, the “kd ratio pH 7.4/6.0” value in test [5] was determined as 50; in test [6], 69.

B6: T0263018B11 S30E (VHH, name in Kabat numbering)
VHH: EVQLVESGGGVVQPGGSLRLSCAASGFTFESYAMYWVRQAPGKGLEWVSAISSGGGSTDYADSVKGRFTISRDNSKNTLYLQMNSLRPEDTALYYCAADTLYTSLTWYSYWGQGTLVTVSS
notes: FLAG3-His6 tagged
On to B6, for which the koff in test [1] was found to be 0.0019 s⁻¹; in test [2], 0.0016 s⁻¹; in test [3], 0.071 s⁻¹; in test [4] it was 0.073 s⁻¹. The “kd ratio pH 7.4/6.0” value in test [5] is 37; in test [6] it was 46.

B7: T0263018B11 S30Q (VHH, name in Kabat numbering)
VHH: EVQLVESGGGVVQPGGSLRLSCAASGFTFQSYAMYWVRQAPGKGLEWVSAISSGGGSTDYADSVKGRFTISRDNSKNTLYLQMNSLRPEDTALYYCAADTLYTSLTWYSYWGQGTLVTVSS
notes: FLAG3-His6 tagged
On to B7, for which the off-rate constant (koff) was 0.00085 s⁻¹ in test [1], 0.00055 s⁻¹ in test [2], 0.035 s⁻¹ in test [3] and 0.026 s⁻¹ in test [4]. Also, the “kd ratio pH 7.4/6.0” value in test [5] worked out at 42; in test [6], 47.

B8: T0263018B11 S31K (VHH, name in Kabat numbering)
VHH: EVQLVESGGGVVQPGGSLRLSCAASGFTFSKYAMYWVRQAPGKGLEWVSAISSGGGSTDYADSVKGRFTISRDNSKNTLYLQMNSLRPEDTALYYCAADTLYTSLTWYSYWGQGTLVTVSS
notes: FLAG3-His6 tagged
For the molecule B8, the koff in test [1] stood at 0.0013 s⁻¹; in test [2], 0.0011 s⁻¹; in test [3], 0.048 s⁻¹; in test [4], 0.044 s⁻¹. Besides, the entries for the “kd ratio pH 7.4/6.0” value in test [5] and in test [6] were 37 and 40, respectively.

B9: T0263018B11 S31Q (VHH, name in Kabat numbering)
VHH: EVQLVESGGGVVQPGGSLRLSCAASGFTFSQYAMYWVRQAPGKGLEWVSAISSGGGSTDYADSVKGRFTISRDNSKNTLYLQMNSLRPEDTALYYCAADTLYTSLTWYSYWGQGTLVTVSS
notes: FLAG3-His6 tagged
As to B9, the koff in test [1] worked out at 0.00038 s⁻¹; in test [2] it was 0.00016 s⁻¹; in test [3], 0.017 s⁻¹; in test [4] it was 0.013 s⁻¹. For the same molecule, the “kd ratio pH 7.4/6.0” value in test [5] was 43; in test [6], 79.

B10: T0263018B11 S52E (VHH, name in Kabat numbering)
VHH: EVQLVESGGGVVQPGGSLRLSCAASGFTFSSYAMYWVRQAPGKGLEWVSAIESGGGSTDYADSVKGRFTISRDNSKNTLYLQMNSLRPEDTALYYCAADTLYTSLTWYSYWGQGTLVTVSS
notes: FLAG3-His6 tagged
Take B10: the koff in test [1] was determined as 0.0026 s⁻¹; in test [2] it was 0.0023 s⁻¹; in test [3] it was 0.042 s⁻¹; in test [4], 0.047 s⁻¹. Also, the “kd ratio pH 7.4/6.0” value in test [5] is 16; in test [6] it was 20.

B11: T0263018B11 S30N (VHH, name in Kabat numbering)
VHH: EVQLVESGGGVVQPGGSLRLSCAASGFTFNSYAMYWVRQAPGKGLEWVSAISSGGGSTDYADSVKGRFTISRDNSKNTLYLQMNSLRPEDTALYYCAADTLYTSLTWYSYWGQGTLVTVSS
notes: FLAG3-His6 tagged
In the case of B11, the koff came to 0.0019 s⁻¹ in test [1], 0.0013 s⁻¹ in test [2], 0.082 s⁻¹ in test [3] and 0.061 s⁻¹ in test [4]. The figures for the “kd ratio pH 7.4/6.0” value in test [5] and in test [6] were 42 and 46, respectively.

B12: T0263018B11 S30G (VHH, name in Kabat numbering)
VHH: EVQLVESGGGVVQPGGSLRLSCAASGFTFGSYAMYWVRQAPGKGLEWVSAISSGGGSTDYADSVKGRFTISRDNSKNTLYLQMNSLRPEDTALYYCAADTLYTSLTWYSYWGQGTLVTVSS
notes: FLAG3-His6 tagged
With B12, the koff in test [1] was determined as 0.00066 s⁻¹; in test [2], 0.00054 s⁻¹; in test [3] it was 0.025 s⁻¹; in test [4], 0.019 s⁻¹. Also, the “kd ratio pH 7.4/6.0” value in test [5] worked out at 38; in test [6], 35.

B13: T0263018B11 S52D (VHH, name in Kabat numbering)
VHH: EVQLVESGGGVVQPGGSLRLSCAASGFTFSSYAMYWVRQAPGKGLEWVSAIDSGGGSTDYADSVKGRFTISRDNSKNTLYLQMNSLRPEDTALYYCAADTLYTSLTWYSYWGQGTLVTVSS
notes: FLAG3-His6 tagged
In the case of B13, the koff was found to be 0.0044 s⁻¹ in test [1], 0.0031 s⁻¹ in test [2], 0.14 s⁻¹ in test [3] and 0.19 s⁻¹ in test [4]. Further, the “kd ratio pH 7.4/6.0” value in test [5] amounted to 32; in test [6], 61.

B14: T0263018B11 S31T (VHH, name in Kabat numbering)
VHH: EVQLVESGGGVVQPGGSLRLSCAASGFTFSTYAMYWVRQAPGKGLEWVSAISSGGGSTDYADSVKGRFTISRDNSKNTLYLQMNSLRPEDTALYYCAADTLYTSLTWYSYWGQGTLVTVSS
notes: FLAG3-His6 tagged
B14: the koff in test [1] was found to be 0.00052 s⁻¹; in test [2] it was 0.0003 s⁻¹; in test [3], 0.024 s⁻¹; in test [4] it was 0.018 s⁻¹. Also, the “kd ratio pH 7.4/6.0” value was found to be 46 in test [5] and 60 in test [6].

These data come from patent US20240132624A1 (Ablynx, published 2024).
